According to publication PMC9482650, “Quantitative fragmentomics allow affinity mapping of interactomes” (Nature Communications, 2022):

T1: APBA1_1, Q02410
T1 sequence (Q02410 651-752, limits assumed, looked up): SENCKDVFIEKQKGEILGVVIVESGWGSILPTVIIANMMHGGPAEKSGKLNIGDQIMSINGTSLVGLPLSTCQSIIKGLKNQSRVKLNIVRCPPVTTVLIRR

T2: APBA1_2, Q02410
T2 sequence (Q02410 742-832, limits assumed, looked up): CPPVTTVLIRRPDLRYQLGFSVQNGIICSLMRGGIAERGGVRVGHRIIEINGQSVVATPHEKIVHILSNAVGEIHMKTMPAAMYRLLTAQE

T3: APBA2_1, Q99767
T3 sequence (Q99767 563-664, limits assumed, looked up): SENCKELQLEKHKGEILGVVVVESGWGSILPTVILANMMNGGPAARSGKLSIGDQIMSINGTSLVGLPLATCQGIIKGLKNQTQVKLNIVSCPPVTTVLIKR

T4: APBA2_2, Q99767
T4 sequence (Q99767 654-744, limits assumed, looked up): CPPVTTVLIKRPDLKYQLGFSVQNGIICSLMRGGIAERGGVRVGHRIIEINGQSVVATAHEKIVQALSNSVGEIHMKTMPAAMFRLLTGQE

T5: DVL3, Q92997
T5 sequence (Q92997 244-331, limits assumed, looked up): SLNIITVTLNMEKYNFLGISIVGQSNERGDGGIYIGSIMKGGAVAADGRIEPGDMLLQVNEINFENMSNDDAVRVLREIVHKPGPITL

T6: GRIP1_4, Q9Y3R0
T6 sequence (Q9Y3R0 467-571, limits assumed, looked up): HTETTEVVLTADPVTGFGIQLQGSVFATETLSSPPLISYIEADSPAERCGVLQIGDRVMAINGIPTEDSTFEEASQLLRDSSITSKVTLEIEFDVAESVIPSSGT

T7: HTRA3, P83110
T7 sequence (P83110 354-453, limits assumed, looked up): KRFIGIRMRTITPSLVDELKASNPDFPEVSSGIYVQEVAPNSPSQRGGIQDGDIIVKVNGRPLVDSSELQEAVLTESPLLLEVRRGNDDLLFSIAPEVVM

T8: LIN7C, Q9NUP9
T8 sequence (Q9NUP9 88-185, limits assumed, looked up): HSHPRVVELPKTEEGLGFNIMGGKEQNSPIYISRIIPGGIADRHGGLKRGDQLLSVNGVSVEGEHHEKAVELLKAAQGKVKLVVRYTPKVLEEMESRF

T9: LNX2_2, Q8N448
T9 sequence (Q8N448 334-432, limits assumed, looked up): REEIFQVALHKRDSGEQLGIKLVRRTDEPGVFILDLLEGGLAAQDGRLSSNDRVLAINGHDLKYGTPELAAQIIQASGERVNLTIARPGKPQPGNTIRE

T10: LNX2_3, Q8N448
T10 sequence (Q8N448 463-564, limits assumed, looked up): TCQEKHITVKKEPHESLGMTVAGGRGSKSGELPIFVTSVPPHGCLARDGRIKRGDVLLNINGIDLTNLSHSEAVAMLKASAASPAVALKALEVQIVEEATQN

T11: MPDZ_10, O75970
T11 sequence (O75970 1624-1722, limits assumed, looked up): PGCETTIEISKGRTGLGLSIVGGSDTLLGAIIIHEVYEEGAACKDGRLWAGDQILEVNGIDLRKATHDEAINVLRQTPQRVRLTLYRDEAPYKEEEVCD

T12: NHERF3_3, Q5T2W1
T12 sequence (Q5T2W1 238-333, limits assumed, looked up): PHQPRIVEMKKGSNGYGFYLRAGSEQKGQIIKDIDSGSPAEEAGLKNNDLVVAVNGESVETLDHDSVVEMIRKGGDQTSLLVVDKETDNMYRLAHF

T13: SNTA1, Q13424
T13 sequence (Q13424 82-180, limits assumed, looked up): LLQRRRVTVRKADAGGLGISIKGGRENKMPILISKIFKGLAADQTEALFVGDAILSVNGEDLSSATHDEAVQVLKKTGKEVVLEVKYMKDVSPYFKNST


Experiments:
Assay in all cases: holdup assay
Design in all cases: key: below the threshold = too weak to quantify, mostly under pKd 3.1 to 4
Conditions in all cases: plain residues with an end cap or a label only (N-terminal biotin on a linker: ado-ado)
APBA1_1, Q02410 = molecular target: T1, APBA1_1, Q02410
APBA1_2, Q02410 = molecular target: T2, APBA1_2, Q02410
APBA2_1, Q99767 = molecular target: T3, APBA2_1, Q99767
APBA2_2, Q99767 = molecular target: T4, APBA2_2, Q99767
DLG4_1, P78352 = molecular target: DLG4_1, P78352
DLG4_1, P78352, sequence (P78352 62-152): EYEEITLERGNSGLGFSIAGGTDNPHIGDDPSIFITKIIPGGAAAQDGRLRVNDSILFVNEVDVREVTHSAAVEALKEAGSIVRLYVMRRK

DVL3, Q92997 = molecular target: T5, DVL3, Q92997
FRMPD2_3, Q68DX3 = molecular target: FRMPD2_3, Q68DX3
FRMPD2_3, Q68DX3, sequence (Q68DX3 1073-1166): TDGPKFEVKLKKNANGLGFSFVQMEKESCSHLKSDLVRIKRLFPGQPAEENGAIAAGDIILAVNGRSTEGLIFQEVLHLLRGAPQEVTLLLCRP

GRID2IP_1, A4D2P6 = molecular target: GRID2IP_1, A4D2P6
GRID2IP_1, A4D2P6, sequence (A4D2P6 1-87): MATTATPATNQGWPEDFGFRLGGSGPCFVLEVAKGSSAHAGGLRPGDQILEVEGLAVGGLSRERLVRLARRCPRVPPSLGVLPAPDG

GRIP1_4, Q9Y3R0 = molecular target: T6, GRIP1_4, Q9Y3R0
GRIP2_4, Q9C0E4 = molecular target: GRIP2_4, Q9C0E4
GRIP2_4, Q9C0E4, sequence (Q9C0E4 446-548): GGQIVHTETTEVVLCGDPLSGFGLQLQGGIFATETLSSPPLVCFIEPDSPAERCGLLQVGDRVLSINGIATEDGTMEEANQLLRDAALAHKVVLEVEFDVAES

HTRA3, P83110 = molecular target: T7, HTRA3, P83110
Inadl_4, Q8NI35 = molecular target: Inadl_4, Q8NI35
Inadl_4, Q8NI35, sequence (Q8NI35 547-651): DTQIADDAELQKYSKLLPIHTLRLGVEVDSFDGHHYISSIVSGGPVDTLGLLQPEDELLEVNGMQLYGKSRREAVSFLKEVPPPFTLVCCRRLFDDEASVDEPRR

LIN7C, Q9NUP9 = molecular target: T8, LIN7C, Q9NUP9
LNX1_2, Q8TBB1 = molecular target: LNX1_2, Q8TBB1
LNX1_2, Q8TBB1, sequence (Q8TBB1 371-470): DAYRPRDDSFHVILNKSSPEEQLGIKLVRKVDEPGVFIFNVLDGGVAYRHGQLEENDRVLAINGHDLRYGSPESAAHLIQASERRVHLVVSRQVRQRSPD

LNX1_3, Q8TBB1 = molecular target: LNX1_3, Q8TBB1
LNX1_3, Q8TBB1, sequence (Q8TBB1 500-596): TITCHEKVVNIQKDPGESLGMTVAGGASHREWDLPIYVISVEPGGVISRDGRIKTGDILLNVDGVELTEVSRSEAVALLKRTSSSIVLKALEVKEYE

LNX2_2, Q8N448 = molecular target: T9, LNX2_2, Q8N448
LNX2_3, Q8N448 = molecular target: T10, LNX2_3, Q8N448
MAGI2_2, Q86UL8 = molecular target: MAGI2_2, Q86UL8
MAGI2_2, Q86UL8, sequence (Q86UL8 410-522): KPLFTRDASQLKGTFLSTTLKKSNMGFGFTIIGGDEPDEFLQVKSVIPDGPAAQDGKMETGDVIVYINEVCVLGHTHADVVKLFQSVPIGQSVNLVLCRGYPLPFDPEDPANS

MPDZ_10, O75970 = molecular target: T11, MPDZ_10, O75970
NHERF3_3, Q5T2W1 = molecular target: T12, NHERF3_3, Q5T2W1
NHERF4_2, Q86UT5 = molecular target: NHERF4_2, Q86UT5
NHERF4_2, Q86UT5, sequence (Q86UT5 220-308): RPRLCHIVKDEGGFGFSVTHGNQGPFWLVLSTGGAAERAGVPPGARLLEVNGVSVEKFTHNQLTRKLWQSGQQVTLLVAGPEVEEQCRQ

NHERF4_4, Q86UT5 = molecular target: NHERF4_4, Q86UT5
NHERF4_4, Q86UT5, sequence (Q86UT5 464-550): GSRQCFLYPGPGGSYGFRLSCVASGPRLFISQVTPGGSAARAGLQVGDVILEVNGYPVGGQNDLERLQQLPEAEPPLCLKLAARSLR

PDLIM1, O00151 = molecular target: PDLIM1, O00151
PDLIM1, O00151, sequence (O00151 1-87): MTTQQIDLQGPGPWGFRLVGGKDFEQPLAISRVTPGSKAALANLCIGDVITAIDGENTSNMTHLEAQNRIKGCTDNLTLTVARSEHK

SCRIB_1, Q14160 = molecular target: SCRIB_1, Q14160
SCRIB_1, Q14160, sequence (Q14160 718-814): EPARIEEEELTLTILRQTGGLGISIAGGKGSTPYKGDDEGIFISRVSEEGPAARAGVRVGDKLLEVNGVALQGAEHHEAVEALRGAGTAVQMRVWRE

SNTA1, Q13424 = molecular target: T13, SNTA1, Q13424

Binder | pKd (APBA1_1, Q02410) | pKd (APBA1_2, Q02410) | pKd (APBA2_1, Q99767) | pKd (APBA2_2, Q99767) | pKd (DLG4_1, P78352) | pKd (DVL3, Q92997) | pKd (FRMPD2_3, Q68DX3) | pKd (GRID2IP_1, A4D2P6) | pKd (GRIP1_4, Q9Y3R0) | pKd (GRIP2_4, Q9C0E4) | pKd (HTRA3, P83110) | pKd (Inadl_4, Q8NI35) | pKd (LIN7C, Q9NUP9) | pKd (LNX1_2, Q8TBB1) | pKd (LNX1_3, Q8TBB1) | pKd (LNX2_2, Q8N448) | pKd (LNX2_3, Q8N448) | pKd (MAGI2_2, Q86UL8) | pKd (MPDZ_10, O75970) | pKd (NHERF3_3, Q5T2W1) | other results
EEDTAEKDEL [HSPA5, P11021] | below the threshold | below the threshold | below the threshold | 3.56 | below the threshold | below the threshold | below the threshold | below the threshold | below the threshold | below the threshold | below the threshold | below the threshold | below the threshold | below the threshold | below the threshold | below the threshold | 3.53 | 3.48 | below the threshold | below the threshold | pKd (NHERF4_2, Q86UT5): below the threshold; pKd (NHERF4_4, Q86UT5): below the threshold; pKd (PDLIM1, O00151): below the threshold; pKd (SCRIB_1, Q14160): below the threshold; pKd (SNTA1, Q13424): below the threshold
RQSILFSTEV [BCR, P11274] | below the threshold | 4.07 | below the threshold | below the threshold | 4.67 | below the threshold | below the threshold | below the threshold | below the threshold | below the threshold | 3.63 | below the threshold | 3.63 | 3.74 | 3.64 | 4.71 | below the threshold | 3.7 | 3.62 | below the threshold | pKd (NHERF4_2, Q86UT5): below the threshold; pKd (NHERF4_4, Q86UT5): below the threshold; pKd (PDLIM1, O00151): below the threshold; pKd (SCRIB_1, Q14160): 4.69; pKd (SNTA1, Q13424): 4.47
PLDSQQHTEV [FAT1, Q14517] | below the threshold | 3.7 | below the threshold | below the threshold | 4.41 | below the threshold | below the threshold | below the threshold | below the threshold | below the threshold | below the threshold | below the threshold | below the threshold | below the threshold | below the threshold | 4.35 | below the threshold | below the threshold | below the threshold | below the threshold | pKd (NHERF4_2, Q86UT5): below the threshold; pKd (NHERF4_4, Q86UT5): below the threshold; pKd (PDLIM1, O00151): below the threshold; pKd (SCRIB_1, Q14160): 4.12; pKd (SNTA1, Q13424): 4.22

More lines, main results first:

pKd (APBA1_1, Q02410) | pKd (APBA1_2, Q02410) | pKd (APBA2_1, Q99767) | pKd (APBA2_2, Q99767) | pKd (DLG4_1, P78352) | pKd (DVL3, Q92997) | pKd (FRMPD2_3, Q68DX3) | pKd (GRID2IP_1, A4D2P6) | pKd (GRIP1_4, Q9Y3R0) | pKd (GRIP2_4, Q9C0E4) | pKd (HTRA3, P83110) | pKd (Inadl_4, Q8NI35) | pKd (LIN7C, Q9NUP9) | pKd (LNX1_2, Q8TBB1) | pKd (LNX1_3, Q8TBB1) | pKd (LNX2_2, Q8N448) | pKd (LNX2_3, Q8N448) | pKd (MAGI2_2, Q86UL8) | pKd (MPDZ_10, O75970) | pKd (NHERF3_3, Q5T2W1) | Binder | other results
below the threshold | below the threshold | below the threshold | below the threshold | 3.79 | below the threshold | below the threshold | below the threshold | below the threshold | below the threshold | below the threshold | below the threshold | 4.28 | below the threshold | below the threshold | below the threshold | below the threshold | below the threshold | below the threshold | below the threshold | PELESKESVL [SLC1A4, P43007] | pKd (NHERF4_2, Q86UT5): below the threshold; pKd (NHERF4_4, Q86UT5): below the threshold; pKd (PDLIM1, O00151): 3.59; pKd (SCRIB_1, Q14160): 4.18; pKd (SNTA1, Q13424): 4.7
below the threshold | 4.25 | below the threshold | below the threshold | 3.91 | below the threshold | below the threshold | below the threshold | below the threshold | below the threshold | below the threshold | below the threshold | below the threshold | below the threshold | below the threshold | below the threshold | below the threshold | 4.2 | below the threshold | below the threshold | SRPTKGPTLL [PLEKHH2, Q8IVE3] | pKd (NHERF4_2, Q86UT5): below the threshold; pKd (NHERF4_4, Q86UT5): 3.89; pKd (PDLIM1, O00151): below the threshold; pKd (SCRIB_1, Q14160): 3.86; pKd (SNTA1, Q13424): below the threshold
